Laboratory results published in patent publication US10942185B2, “Therapeutic and diagnostic methods for manipulating phagocytosis through calreticulin and low density lipoprotein-related receptor” (The Board of Trustees of the Leland Stanford Junior …, priority 2010, dated 2021).
Entries after “also recorded” stand apart in the source; their conditions may differ. Blank lines part the entries; values can stand above or below the molecule they belong to.

Experiments:
Molm 13 cells = experiment: Cell surface calreticulin on staurosporine-treated Molm 13 cells, flow cytometry; type: cell-based, human; details: live cells, compared to isotype control
Source text: (§1) FIGS. 14A-14B. […] Live cells were stained with anti-calreticulin (CRT) antibody conjugated by a fluorophore. […] Live cells were stained with LRP1 cluster IV-Fc protein followed by a secondary anti-Fc antibody conjugated to a fluorophore.

[1] = target: T1, Calreticulin on the cell surface of Molm 13 cells (Homo sapiens, UniProt P27797); experiment: LRP1 cluster IV-Fc binding to staurosporine-treated Molm 13 cells, flow cytometry
T1 construct: endogenous in cells; host or cells: Molm 13 (human AML cell line), treated with staurosporine
T1 sequence (P27797 18-417): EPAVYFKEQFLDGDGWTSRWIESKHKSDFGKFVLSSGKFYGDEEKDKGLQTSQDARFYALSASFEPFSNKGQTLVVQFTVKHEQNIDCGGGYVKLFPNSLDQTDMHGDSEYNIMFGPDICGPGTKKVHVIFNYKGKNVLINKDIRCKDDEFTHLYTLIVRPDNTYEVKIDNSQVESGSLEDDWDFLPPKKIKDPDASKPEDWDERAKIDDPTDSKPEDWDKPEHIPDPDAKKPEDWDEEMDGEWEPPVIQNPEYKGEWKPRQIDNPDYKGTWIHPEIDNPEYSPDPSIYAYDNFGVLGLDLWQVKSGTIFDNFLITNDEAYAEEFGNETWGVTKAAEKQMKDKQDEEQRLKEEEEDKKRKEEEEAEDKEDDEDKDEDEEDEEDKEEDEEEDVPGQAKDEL
Source text: as §1

[2] = system: primary human cancer cells; experiment: In vitro phagocytosis assay, primary human cancer cells with human macrophages; type: cell-based; details: two hours; for phagocytosis of primary human cancer cells, agent alone: compared to IgG1 isotype control
Procedure: (§2) Given the known role of CRT as a pro-phagocytic signal, its correlation with CD47 expression (FIG. 2A), and its ability to be counteracted by CD47 (FIG. 2), we investigated whether the expression of cell surface CRT on cancer but not normal cells could explain the selective targeting of tumor cells by a blocking anti-CD47 antibody. In vitro phagocytosis assays were performed by incubating primary human normal cells or cancer cells with human macrophages in the presence of anti-CD47 antibody. CD47 was expressed on all normal and cancer cells profiled (FIG. 2A and FIG. 7, 9), but expression of calreticulin was primarily restricted to tumor cells (FIG. 1A,B). […] (FIG. 3C).
(§3) Generation of human macrophages and in vitro phagocytosis assays were performed as previously described. Primary human samples or cell lines were incubated with 10 μg/ml IgG1 isotype control (Ebiosciences), 10 μg/ml anti-CD47 antibody (clone B6H12.2, ATCC), 4 μg/ml calreticulin blocking peptide (MBL International Corporation), 10 μg/ml RAP (Fitzgerald Industries International), or 125 μg/ml recombinant CRT human protein (Thermo Scientific). Per MBL, confirmation of blocking activity was performed by Western blot analysis, verified by incubation of an anti-CRT antibody with 5 times higher concentration of the peptide and performing a Western blot analysis to determine if the specific band had been diminished. Cells were then analyzed by fluorescence microscopy to determine the phagocytic index (number of cells ingested per 100 macrophages).

NBM cells = experiment: In vitro phagocytosis assay, human NBM cells with human macrophages; type: cell-based; details: vs vehicle or IgG1 isotype control
Source text: Next, the relationship between the level of tumor cell surface CRT expression and level of phagocytosis by anti-CD47 antibody was investigated. Cell surface CRT expression on tumor cells positively correlated with the degree of anti-CD47 antibody mediated phagocytosis, regardless of tumor cell type (FIG. 3D). Finally, given that normal cells express minimal levels of cell surface CRT, we investigated whether the addition of CRT to the surface of these cells could enable phagocytosis.
as §3

[3] = system: primary human normal cells; experiment: In vitro phagocytosis assay, normal human tissue cells with human macrophages; type: cell-based; details: several normal human tissue types, vs IgG1 isotype control
Procedure: as §2
as §3, with “Per MBL, confirmation of blocking activity was performed by Western blot analysis, verified by incubation of an anti-CRT antibody with 5 times higher concentration of the peptide and performing a Western blot analysis to determine if the specific band had been diminished.” left out

Molecule: CN[C@@H]1C[C@H]2O[C@@](C)([C@@H]1OC)n1c3ccccc3c3c4c(c5c6ccccc6n2c5c31)C(=O)NC4 [staurosporine]
cell surface calreticulin (Molm 13 cells): increase in cell surface calreticulin

binding to staurosporine-treated Molm 13 cells ([1]; live cells, secondary anti-Fc antibody, flow cytometry): increase in the binding
Molecule: LRP1 cluster IV-Fc protein: LRP1 cluster IV fused to Fc, used to stain cell surface calreticulin

blocking of LRP1 cluster IV-Fc protein binding ([1]; staurosporine-treated Molm 13 cells): can be blocked
Molecule: RAP: receptor-associated protein (RAP), an inhibitor of LRP (Fitzgerald Industries International)
anti-CD47 antibody-mediated phagocytosis of cancer cells ([2]; in the presence of anti-CD47 antibody): completely abrogated in most cases; also recorded: completely abrogated anti-CD47 antibody-mediated phagocytosis | phagocytosis of primary human cancer cells, agent alone [2]: did not enable phagocytosis | phagocytosis of primary human cancer cells, agent alone ([2]; listed as LRP): no effect on phagocytosis

B1: exogenous CRT: recombinant CRT human protein (Thermo Scientific), adsorbs onto the cellular surface and directly binds LRP (protein, UniProt P27797 18-417, looked up)
Calreticulin: EPAVYFKEQFLDGDGWTSRWIESKHKSDFGKFVLSSGKFYGDEEKDKGLQTSQDARFYALSASFEPFSNKGQTLVVQFTVKHEQNIDCGGGYVKLFPNSLDQTDMHGDSEYNIMFGPDICGPGTKKVHVIFNYKGKNVLINKDIRCKDDEFTHLYTLIVRPDNTYEVKIDNSQVESGSLEDDWDFLPPKKIKDPDASKPEDWDERAKIDDPTDSKPEDWDKPEHIPDPDAKKPEDWDEEMDGEWEPPVIQNPEYKGEWKPRQIDNPDYKGTWIHPEIDNPEYSPDPSIYAYDNFGVLGLDLWQVKSGTIFDNFLITNDEAYAEEFGNETWGVTKAAEKQMKDKQDEEQRLKEEEEDKKRKEEEEAEDKEDDEDKDEDEEDEEDKEEDEEEDVPGQAKDEL
phagocytosis of NBM cells (NBM cells): enabled phagocytosis of NBM cells; also recorded: enabled increased phagocytosis | phagocytosis of NBM cells (NBM cells; listed as Exogenous CRT): enabled increased phagocytosis of NBM cells

B2: anti-CD47 antibody: blocking monoclonal anti-human CD47 antibody, clone B6H12.2, ATCC (antibody, V domains shown)
VH: EVQLVESGGDLVKPGGSLKLSCAASGFTFSGYGMSWVRQTPDKRLEWVATITSGGTYTYYPDSVKGRFTISRDNAKNTLYLQIDSLKSEDTAIYFCARSLAGNAMDYWGQGTSVTVSS
VL: DIVMTQSPATLSVTPGDRVSLSCRASQTISDYLHWYQQKSHESPRLLIKFASQSISGIPSRFSGSGSGSDFTLSINSVEPEDVGVYYCQNGHGFPRTFGGGTKLEIK
phagocytosis of primary human cancer cells, agent alone [2]: robustly phagocytosed; also recorded: are phagocytosed; also recorded: enabled phagocytosis of cancer cells | phagocytosis of normal human cells [3]: not phagocytosed; also recorded: No difference in phagocytosis | phagocytosis of NBM cells (NBM cells): did not; also recorded: No difference in phagocytosis
